Experiments:
[1] = target: T1, DNA topoisomerase 1 (TOP1) (human, UniProt P11387 1-765); assay: EMSA
[2] = target: T1, DNA topoisomerase 1 (TOP1); assay: competition
[3] = target: T1, DNA topoisomerase 1 (TOP1); assay: competition; remark: listed apart in the source

T1 sequence (P11387 whole entry): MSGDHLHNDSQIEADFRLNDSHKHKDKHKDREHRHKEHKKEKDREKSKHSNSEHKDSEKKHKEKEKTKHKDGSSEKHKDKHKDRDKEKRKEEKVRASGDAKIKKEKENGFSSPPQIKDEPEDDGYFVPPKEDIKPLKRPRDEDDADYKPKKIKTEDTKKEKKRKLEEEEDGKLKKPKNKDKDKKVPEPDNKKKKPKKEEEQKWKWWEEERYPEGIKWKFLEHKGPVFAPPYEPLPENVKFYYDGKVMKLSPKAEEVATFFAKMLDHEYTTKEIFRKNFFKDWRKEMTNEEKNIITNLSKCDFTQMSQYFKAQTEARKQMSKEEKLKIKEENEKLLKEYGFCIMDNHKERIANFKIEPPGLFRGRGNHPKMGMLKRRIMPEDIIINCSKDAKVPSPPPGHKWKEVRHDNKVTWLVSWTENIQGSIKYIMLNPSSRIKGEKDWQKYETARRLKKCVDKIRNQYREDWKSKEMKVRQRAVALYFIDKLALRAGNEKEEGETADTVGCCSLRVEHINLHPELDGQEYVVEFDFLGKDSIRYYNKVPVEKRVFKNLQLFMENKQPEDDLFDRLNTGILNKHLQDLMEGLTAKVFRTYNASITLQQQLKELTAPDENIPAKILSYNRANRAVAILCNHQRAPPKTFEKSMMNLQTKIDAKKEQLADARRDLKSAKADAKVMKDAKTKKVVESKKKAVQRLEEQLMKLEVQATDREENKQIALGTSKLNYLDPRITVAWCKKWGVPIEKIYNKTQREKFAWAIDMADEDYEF

B1: 52-bp TOP1 substrate (dsDNA)
DNA 1: TCTAGAGGATTTCGAAGACTTAGAGAAATTTCGAAGATCCCCGGGCGAGCTC
DNA 2: GAGCTCGCCCGGGGATCTTCGAAATTTCTCTAAGTCTTCGAAATCCTCTAGA
binding result [1]: binds

B2: 22-bp TOP1 binding sequence competitor (TOP1-BS) (dsDNA)
DNA 1: AAAAAGACTTGGAAAAATTTTT
DNA 2: AAAAATTTTTCCAAGTCTTTTT
binding result [2]: binds

B3: 42-bp NF-kappaB binding sequence competitor (NF-kappaB-BS) (dsDNA)
DNA 1: GATCCAAGGGGACTTTCCATGGATCCAAGGGGACTTTCCATG
DNA 2: CATGGAAAGTCCCCTTGGATCCATGGAAAGTCCCCTTGGATC
binding result [3]: no binding

From publication PMC2562756
